Results reported in the nanobody polyreactivity screen of Harvey et al. (2022).

Assay: yeast display, Sf9 membrane polyspecificity reagent, FACS + sequencing; frameworks hold sequencing errors
Procedure, shortened: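 Galactose induction of a Saccharomyces cerevisiae BJ5465 synthetic nanobody display library ran 36–48 hours. The cells were then stained for 1 hour at 4 °C with 10% biotinylated, detergent-solubilized Sf9 membrane reagent, pulled down on streptavidin microbeads and FACS-sorted into low and high (top ~1%) gates on expression and reagent-binding fluorescence. Labels for polyreactivity follow the gate of origin.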

Sequence	polyreactivity (PSR sort gate)
QVQLVESGGGLVQAGGSLRISCAASGRTFDHYAMGWYRPAPGKERELVAAISFSGGSTYYADSVKGRLTISRDNAKNTVYLQMNRLKPEDTAVYYCAADYAYWLSGYDYWGQGTQVTVSS	low polyreactivity
QVQLVESGGGLVQAGGSLRLSCAPSGSTFDRNDMGWYRQAPGKERELVAAISRVSSTNYADSVKVRFTISRDNAKNTVYLQMNSLKPADTAVYYCAADRAGSIMNYWGQGTQETVSS	low polyreactivity
QVQLVESGGGLVQAGGSLRLSCAASGRNFFTYAMGWYRQAPGKERELVAAIDRSGTSTNYADSVKGRFTISRDNANNTVYLHMHSLKPEDTAVYYCAARPNPYYDEMDYWGQGTQVTVSS	low polyreactivity
QVQLVESGGGLVQAGGSLRLSCAASGRIFGQNVMGWYRQAPGKERELVAAITSAGRTYYADSVKGRFTISRDNAKNTVYLQMNSLKPEDTAVYYCAKVVSRKGYGYWGQGTQVTVSS	high polyreactivity
QVQLVESVGGLVQAGGSLRLSCAASGRIFYVYVMGWYRPAPGKERELVAAISKRGDNTYYSDSVKGRFTISRDNAKNTVYLQMNSLKPEDTAVYYCNVKRYCGRSDYWGQGTQVTVSS	high polyreactivity
QEQLQVSGGHLVQAGGSLRLSCAASGTIYGLTSMGWYRQAPGKEREFVAAITDGGNTNYADSVKGRFTISRDNAKKTVYLLMFCLKPEDTAVYYCAVLFSDDAYYAYWCQGTQVTVSS	low polyreactivity
QVQLVESGGGLVQAGGILRLSCAASGFTFGPNTMGWNRQAPGKERELVAAISRSGGSTYYADSVKGRFTISRDNAKNTVYLQMNSLNPEDTAVYYCAAYSPLSGGRMDYWGQGTQVNVSS	high polyreactivity
WLLLMGWYRQPPGEERELVAGINDGASTNDADSVKGRFTISRDNARNTVYLKMNSLKPGDTAVYYCAGWQPVLIWFYYWGQGTQVTVSS	high polyreactivity
QVQLVESGGGLVQAGGSLRLSCAASGSFFRNYAMGWYRQAPGKERELVAAISRRGTSTFYADSVKGRFTISRDNAMNTVYLQMNSLKPEDTAVYYCAARGSAGGDYGYWGQGTQVTVSS	high polyreactivity
QVQLVETGGRLVQAGGSLRLSSAASGSIFYPYAMGWYRQAPGKEREWVATITISGGRTYYADSVKGRFTISRDNAKNTVYLQMNSLKPEDTAFYYCATEYAYGAFLYDYWGQGTQVTVSW	low polyreactivity
QVQLVESAGGLVQAGGSLRLSCAASGIIFRPNPLGWYRQAPGKERELVAAISKRGGSTYYADSVKGRFTISRDNAKNTVYLQMNSLKPEDTAVYYCAKRQQQSSGYDYWGQGTQVTVSS	high polyreactivity
QVQLVESGGGIVQAGGSLRLSCAASGSIFGANAMVWYRQAPGKERELVAAISRRGGSTYYADSVKGRFTISRDNAKNTVYLQMNSLKPEDSAVYYCNTYPQSLGVKYGYWGQGTQVTVSS	high polyreactivity
QVQLVESGVGLVQAGGSLRLSCAASGLIFPYYAMGWYRQAPGKERELVAAITSGSGTYYADSVKGRFTISRDNGKNTVYIQMNSLKPEDTAVYYCNAYILFWEYGYWGQGTQVTVSS	high polyreactivity
QGQLVESGGGVVQAGGSLRLSCAASGRIFYRNAMGWYRQAPGKVRELVAAINWSGGSTYYADSVKGRFTISRDNAKNTVYLQMNSLKPEDTAVYYCAARFVRYPSKYDYWGQGTQVTVSS	high polyreactivity
QDQLVESGGGLVQAGGSLRLSCAASGFIFAYNAMGWYRQGPGKESELVAGITWNGGSTYYADSVKGRFTISRDNAKNSVYLQMNRLKPEETAVYYCAARRTWGYIYRLGYGMDYWGQGTQVTVSS	high polyreactivity
QVQLVESGGGLVQAGGSLRLSCAASGRIFTSNTMGWYRQAPGKERELVAAITWRVGSTYYADSVKGRFTISRDNAKNTVYLQMNSLKPEDTAVYYCNAVVLHVTTDNSTFTTDDYWGQGTQVTVSS	low polyreactivity
QVQLVESGGGLVQAGGSLRLSSAASGRTFHRNAMGWYRQAPGKERELVAAITGDGRTNYADSVKGRFTISRDNAKNTVYLQMNSLKPEDTAVYYCAARFSYRSYDYWGQGTQVTVSS	low polyreactivity
QVQLVESGGGLVQAGGSLRLSCAASGSIFGKYAMGWYRQAPGKERELVAAISYSGGSTYYADSVKGRFTISRDNAKNTVYLQMNSLKPEDTAVYYCAVRGWGSAGKYDYWGQGTQVTVSS	high polyreactivity
